# Reference: PMC4802085, “Haem-dependent dimerization of PGRMC1/Sigma-2 receptor facilitates cancer proliferation and chemoresistance” (Nature Communications, 2016)
# B1: FLAG-PGRMC1 wild-type (a.a.44–195) (domain or fragment)
# chain: not shown
# notes: progesterone-receptor membrane component 1 (PGRMC1), human, cytosolic domain a.a.44–195; The cloning of the FLAG-tagged 44–195 construct is not described; probably made like the other a.a.44–195 proteins (pGEX6P-1, E. coli BL21 (DE3), GST cleaved); Used as apo form or treated with 50 μmol l^−1 haemin; also called FLAG-PGRMC1 wt (a.a.44–195); cytosolic domain of wild-type PGRMC1
# Target: T1, purified EGFR (epidermal growth factor receptor) (human, UniProt P00533 25-1210)
# T1 construct: epidermal growth factor receptor (EGFR), human, full length protein isolated from A431 cells; also called EGFR protein; source: bought: ENZO (BML-SE116), full length protein isolated from human A431 cells
# Assay: co-IP; in vitro binding assay: 1 μg purified EGFR with 10 μg FLAG-PGRMC1 (a.a.44–195) treated with 50 μmol l^−1 haemin, anti-FLAG (M2) agarose; 20 mmol l^−1 HEPES-NaOH (pH 7.9), 100 mmol l^−1 NaCl, 0.2 mmol l^−1 EDTA, 10% glycerol, 0.1% NP40, room temperature
# Settings: both partners purified
binder,measurement,value
B1,binding result,binds
